Experiment [1] addresses strep-Cyclin F (1–546)-GST-Skp1 (1–163) (human) (UniProt P41002). The experiment is described as follows: fluorescence polarisation. For orientation: Fluorescence polarisation rises when a labelled molecule tumbles more slowly, as on binding a larger partner.
The next experiment concerns the target GST-Cyclin A (173–432) (UniProt P20248). Description: fluorescence polarisation.
The next experiment deals with CP110. Description: Coimmunoprecipitation of Flag-Cyclin F with endogenous CP110 in HEK293T cells. It is filed as cell-based. To be noted: anti-Flag IP, Western blot, vs WT Cyclin F. (In general: A western blot detects proteins with antibodies after separation by electrophoresis.)
The test system of another experiment is CDC6. Description: Coimmunoprecipitation of Flag-Cyclin F with endogenous CDC6 in HEK293T cells. The class given is cell-based. To be noted: anti-Flag IP, Western blot, vs WT Cyclin F.

UniProt P20248, sequence (P20248 173-432): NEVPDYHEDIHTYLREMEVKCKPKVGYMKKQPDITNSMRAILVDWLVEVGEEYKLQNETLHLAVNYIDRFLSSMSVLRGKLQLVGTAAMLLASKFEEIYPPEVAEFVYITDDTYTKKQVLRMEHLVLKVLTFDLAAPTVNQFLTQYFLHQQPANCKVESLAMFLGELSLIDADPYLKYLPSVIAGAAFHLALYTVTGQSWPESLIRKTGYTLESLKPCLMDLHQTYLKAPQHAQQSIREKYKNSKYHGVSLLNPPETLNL

Turning to “E2F1 peptide D93R (unlabeled) (from UniProt Q01094 84-99)”, the fold decrease in affinity against the wild-type E2F1 peptide (in experiment [1]; with GST-Cyclin A (173–432)) was 3 fold each time.
Take “E2F1 peptide K89E (unlabeled) (from UniProt Q01094 84-99)”: the fold decrease in affinity against the wild-type E2F1 peptide in experiment [1] is 24 fold; with GST-Cyclin A (173–432) it was 48 fold.
Turning to “E2F1 peptide R91E (unlabeled) (from UniProt Q01094 84-99)”, the fold decrease in affinity against the wild-type E2F1 peptide was found to be 41 fold in experiment [1] and 12 fold with GST-Cyclin A (173–432).
Taken in the same sequence, the figures for “E2F1 peptide V88E (unlabeled) (from UniProt Q01094 84-99)” were 31 fold and 460 fold.

B1: Cyclin F loop mutant: Flag-Cyclin F mutant containing D504-T511 all changed to alanine (protein)
chain: MGSGGVVHCRCAKCFCYPTKRRIRRRPRNLTILSLPEDVLFHILKWLSVEDILAVRAVHSQLKDLVDNHASVWACASFQELWPSPGNLKLFERAAEKGNFEAAVKLGIAYLYNEGLSVSDEARAEVNGLKASRFFSLAERLNVGAAPFIWLFIRPPWSVSGSCCKAVVHESLRAECQLQRTHKASILHCLGRVLSLFEDEEKQQQAHDLFEEAAHQGCLTSSYLLWESDRRTDVSDPGRCLHSFRKLRDYAAKGCWEAQLSLAKACANANQLGLEVRASSEIVCQLFQASQAVSKQQVFSVQKGLNDTMRYILIDWLVEVATMKDFTSLCLHLTVECVDRYLRRRLVPRYRLQLLGIACMVICTRFISKEILTIREAVWLTDNTYKYEDLVRMMGEIVSALEGKIRVPTVVDYKEVLLTLVPVELRTQHLCSFLCELSLLHTSLSAYAPARLAAAALLLARLTHGQTQPWTTQLWDLTGFSYEDLIPCVLSLHKKCFHDDAPKAAAAAAAAAVKQRFEDKRYGEISQEEVLSYSQLCAALGVTQDSPDPPTFLSTGEIHAFLSSPSGRRTKRKRENSLQEDRGSFVTTPTAELSSQEETLLGSFLDWSLDCCSGYEGDQESEGEKEGDVTAPSGILDVTVVYLNPEQHCCQESSDEEACPEDKGPQDPQALALDTQIPATPGPKPLVRTSREPGKDVTTSGYSSVSTASPTSSVDGGLGALPQPTSVLSLDSDSHTQPCHHQARKSCLQCRPPSPPESSVPQQQVKRINLCIHSEEEDMNLGLVRL
modifications: left off: Flag, end not stated, kept
As for B1, in the experiment on CP110, the “association with CP110 (coimmunoprecipitation)” value is “weaker association was more apparent”. Moreover, the “association with CDC6 (coimmunoprecipitation)” value in the experiment on CDC6 is recorded as “weaker association was more apparent”.

For the origin of these results see publication PMC11761524 (bioRxiv, 2025).
